Assay results as given in patent US20100292153A1 (US Dept. of Health and Human Services, published 2010).

Molecular target: T1, TRAF2 (untagged) (UniProt Q12933 1-501, limits assumed)
T1 construct: Negative control
T1 sequence (looked up): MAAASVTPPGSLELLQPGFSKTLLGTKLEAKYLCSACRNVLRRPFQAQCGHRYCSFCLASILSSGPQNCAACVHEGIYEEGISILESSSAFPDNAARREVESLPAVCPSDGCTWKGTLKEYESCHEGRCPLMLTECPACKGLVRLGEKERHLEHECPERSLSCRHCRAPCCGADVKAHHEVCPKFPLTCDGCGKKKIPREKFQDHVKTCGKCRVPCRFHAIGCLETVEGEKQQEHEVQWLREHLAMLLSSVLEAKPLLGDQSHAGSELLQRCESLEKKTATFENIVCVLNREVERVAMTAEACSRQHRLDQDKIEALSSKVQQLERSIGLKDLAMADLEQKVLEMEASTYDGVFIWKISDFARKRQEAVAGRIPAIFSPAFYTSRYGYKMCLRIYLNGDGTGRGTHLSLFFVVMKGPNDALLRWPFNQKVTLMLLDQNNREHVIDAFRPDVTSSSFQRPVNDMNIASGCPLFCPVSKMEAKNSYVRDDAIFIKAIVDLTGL
Experiment: co-immunoprecipitation from transfected HEK293 cells (anti-FLAG beads, anti-TRAF2 immunoblot)
Method: Whole cell lysates were prepared 48 hrs after the transfection and were incubated with anti-FLAG conjugated beads (Sigma) overnight.

B1: FLAG-tagged human IRF4 (other, UniProt Q15306 1-451, looked up)
chain: MNLEGGGRGGEFGMSAVSCGNGKLRQWLIDQIDSGKYPGLVWENEEKSIFRIPWKHAGKQDYNREEDAALFKAWALFKGKFREGIDKPDPPTWKTRLRCALNKSNDFEELVERSQLDISDPYKVYRIVPEGAKKGAKQLTLEDPQMSMSHPYTMTTPYPSLPAQQVHNYMMPPLDRSWRDYVPDQPHPEIPYQCPMTFGPRGHHWQGPACENGCQVTGTFYACAPPESQAPGVPTEPSIRSAEALAFSDCRLHICLYYREILVKELTTSSPEGCRISHGHTYDASNLDQVLFPYPEDNGQRKNIEKLLSHLERGVVLWMAPDGLYAKRLCQSRIYWDGPLALCNDRPNKLERDQTCKLFDTQQFLSELQAFAHHGRSLPRFQVTLCFGEEFPDPQRQRKLITAHVEPLLARQLYYFAQQNSGHFLRGYDLPEHISNPEDYHRSIRHSSIQE
notes: Expressed by transfection in HEK293 cells; pulled down from whole cell lysates with anti-FLAG beads; it is entered under this molecule; also called IFN-regulatory factor 4; FLAG-tagged IRF4; not shown: FLAG tag
  binding result: no binding
